This passage reports EC50 results from patent publication US20250186604A1 (ADC THERAPEUTICS, published 2025).

B1: MDX 2A10 (antibody, human IgG1, kappa, V domains shown)
VH: EVQLVQSGAEVKKPGESLKISCKGSGYSFTSNWIGWVRQMPGKGLEWMGIIYPGDSDTRYSPSFQGQVTISADKSISTAYLQWSSLKASDTAMYYCARQTGFLWSSDLWGRGTLVTVSS
VL: AIQLTQSPSSLSASVGDRVTITCRASQDISSALAWYQQKPGKAPKLLIYDASSLESGVPSRFSGYGSGTDFTLTINSLQPEDFATYYCQQFNSYPLTFGGGTKVEIKR
notes: also called antibody 2A10
B2: D2B (antibody, V domains shown)
VH: EVKLQESGPGLVKPSQSLSLTCSVTGYSITSGYYWNWIRQFPGNKLEWMGSISFDGNNNYNPSLRNRISITRDTSKNQFFLKLNSVTTEDTATYYCAREGDYYGSSFFTYWGQGTLVTVS
VL: DIVMTQSPASLSASVGETVTLTCGASENIYGALNWYQRKQGKSPQLLIYGATNLADGMSSRFSGSGSGRQYSLKISSLHPDDVATYYCQNVFRTYTFGGGTKLEIKR
B3: J415 (antibody, V domains shown)
VH: EVKLEESGGGLVQPGGSMKLSCVASGFTFSNYWMNWVRQSPEKGLEWVAEIRSQSNNFATHYAESVKGRVIISRDDSKSSVYLQMNNLRAEDTGIYYCTRRWNNFWGQGTTLTVSS
VL: NIVMTQFPKSMSISVGERVTLTCKASENVGTYVSWYQQKPEQSPKMLIYGASNRFTGVPDRFTGSGSATDFILTISSVQTEDLVDYYCGQSYTFPYTFGGGTKLEMK

The target of this experiment is T1, Human PSMA (Prostate-Specific Membrane Antigen) (human, UniProt Q04609 44-750, limits assumed).
T1 construct: Coated on a 96 well plate at 3 ug/ml
T1 sequence (Q04609 44-750 limits assumed): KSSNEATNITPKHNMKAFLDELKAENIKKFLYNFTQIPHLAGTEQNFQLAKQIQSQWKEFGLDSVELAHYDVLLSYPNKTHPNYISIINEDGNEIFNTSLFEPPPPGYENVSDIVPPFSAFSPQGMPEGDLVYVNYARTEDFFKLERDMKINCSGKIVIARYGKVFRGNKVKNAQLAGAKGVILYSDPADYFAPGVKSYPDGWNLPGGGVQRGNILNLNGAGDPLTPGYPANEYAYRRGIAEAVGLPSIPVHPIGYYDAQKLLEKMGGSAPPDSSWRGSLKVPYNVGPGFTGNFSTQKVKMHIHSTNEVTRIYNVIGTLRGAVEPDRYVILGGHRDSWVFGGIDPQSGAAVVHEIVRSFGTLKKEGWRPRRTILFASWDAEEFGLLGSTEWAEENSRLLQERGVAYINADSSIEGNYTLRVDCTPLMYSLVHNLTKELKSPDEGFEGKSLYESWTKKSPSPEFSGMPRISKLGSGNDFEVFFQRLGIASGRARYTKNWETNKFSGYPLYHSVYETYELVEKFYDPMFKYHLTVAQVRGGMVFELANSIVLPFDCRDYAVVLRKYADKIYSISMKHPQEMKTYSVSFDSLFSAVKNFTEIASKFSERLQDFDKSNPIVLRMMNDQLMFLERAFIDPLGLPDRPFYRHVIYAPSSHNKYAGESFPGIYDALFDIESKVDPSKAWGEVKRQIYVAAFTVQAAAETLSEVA
As to the kind of experiment: ELISA, human PSMA coated on plate, anti-human-IgG-HRP detection. On the procedure: Human PSMA was coated on a 96 well plate at 3 μg/ml for at least two hours at room temperature. The plate was washed with wash buffer (0.05% Tween-20 in PBS), then blocked with blocking buffer (3% BSA in PBS) washed again using wash buffer. After which antibodies were titrated from 66.6 nM to 0.013 nM and added to the plate and incubated at room temperature for one hour, after which the plate was washed and anti-human-IgG-HRP added, the plate was incubated for a further 1 hour at room temperature, before being washed and TMB detection reagent added, the reaction was stopped by the addition of 1M HCl to the wells, after which the plate was read at 450 nm using the SpectraMax plate reader.
(ELISA stands for enzyme-linked immunosorbent assay.)
As a reminder, the EC50 is the concentration giving half of the maximal effect. Read a high EC50 as a less potent agent. B1 yielded an EC50 of 0.115 nM.
With B2 the figure was 0.173 nM.
With B3 the figure was 24.8 nM.
